The nanobody polyreactivity screen of Harvey et al. (2022)

assay: yeast display, Sf9 membrane polyspecificity reagent, FACS + sequencing; frameworks hold sequencing errors
Method in brief: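 Polyreactivity labels are assigned by the sorting gate from which each nanobody was recovered. The gates were low and high (top ~1%), set on anti-HA fluorescence for expression and streptavidin fluorescence for reagent binding. Before sorting, galactose-induced (36–48 hours) yeast display cells were stained for 1 hour at 4 °C with 10% biotinylated, detergent-solubilized Sf9 membrane reagent.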

Sequence	polyreactivity (PSR sort gate)
QVQLVESGGGLVQAGGSLRLSCAASGFIFGYYAMGWYRQAPGKERELVAAISSRGGSTYYADSVKGRFTISRDNAKNTVYLQMNSLKPEDTAVYYCAVRRVSFRHKFGQYDYWGQGTQVTVSA	high polyreactivity
QVQLVESGGGLVQAGGSLRLSCAASGFIFGYYAMGWYRQAPGKERELVAAISTRGSTYYADSVKGRFTISRDNAKYTVYLQMNSLKPEDTAVYYCNAGWGYRRDYWGQGTQVTVSS	high polyreactivity
QVQLVESGGGLVQAGGSLRLSCAASGFIFGYYAMGWYRQAPGKERELVAAISWNGGSTYYADSVKGRFTISRDNAKNTVYLQMNSLKPEDTAVYYCAADGYETYYDYDYWGQGTQVTVSS	high polyreactivity
QVQLVESGGGLVQAGGSLRLSCAASGFIFGYYAMGWYRQAPGKERELVAAISYSGGSTYYADSVKGRFTISRDNAKNTVYLQMNSLKPEDTAVYYCAKYGQSNYDWGQGTQVTVSS	high polyreactivity
QVQLVESGGGLVQAGGSLRLSCAASGFIFGYYAMGWYRQAPGKERELVAAITTSAASTYYADSVKGRFTISRDNAKNTVYLQMNSLKPEDTAVYYCNAVLYKVSISEYDYWGQGTQVTVSS	high polyreactivity
QVQLVESGGGLVQAGGSLRLSCAASGFIFGYYGMGWYRQAPGKERELVAAITDGGSTTYADSVKGRFTISRDNAKNTVYLQMNSLKPEDTAVYYCNAEAGGFDYYGKTYRYGDYWGQGTQVTVSS	low polyreactivity
QVQLVESGGGLVQAGGSLRLSCAASGFIFHGYAMGWYRQAPGKERELVAAISGTGGSTYYADSVKGRFTISRDNAKNTVYLQMNSLKPEDTAVYYYKAERSGNGYWGQGTQVTVSS	high polyreactivity
QVQLVESGGGLVQAGGSLRLSCAASGFIFHLNAMGWYRQAPGKERELVAAIRSSGGSTYYADSVKGRFTISRDIAKNTVYFQMISMKREDTAVYYCAARGSSGLTRRGYYWGQGTQVNVSS	high polyreactivity
QVQLVESGGGLVQAGGSLRLSCAASGFIFHLYGMGWYRQATGKERELVAAISSGGRTYYADSVKGRFTISRDNAKNTVYLQMNSLKPEDTAVYYCAVYVAYLYSYYYWGQGTQVTVSS	low polyreactivity
QVQLVESGGGLVQAGGSLRLSCAASGFIFHRNAMGWYRPAPGKERELVASITKRGGNTYYADSVKGRFTISRDNAKNTVYLQMNSLKPEDTAVYYCATQLWGWDWKRDYWGQGTQVTVSS	high polyreactivity
QVQLVESGGGLVQAGGSLRLSCAASGFIFHYYAMGRYRQAPGKERELVAAISWNGGSTNYSDSVKGRFTISRDNAKNTVYLQMNSLKPEDTAVYYCATTDPYYDVDYWGQGTQVTVSS	low polyreactivity
QVQLVESGGGLVQAGGSLRLSCAASGFIFIGNTMGWYRQAPGKDRELVAAIRWSGGSTYYADSVKGRFTISRDNAKNTVYLQMNSLKPEDTAVYYCAARRWSKTRYYYWGQGTQVTVSS	high polyreactivity
QVQLVESGGGLVQAGGSLRLSCAASGFIFIHYAMGWYRQAPGKERELVAAINRRGSRTYYADSVKGRFTISRDNAKNTVYLQMNSLKPEDSAVYYCAAGSRTEYDYWGQGSQVTVSS	high polyreactivity
QVQLVESGGGLVQAGGSLRLSCAASGFIFIKYAMGWYRQAPGKERELVAAISSSGGSTYYADSVKGRFTISRDNAKNTVYLQMNSLKPEDTAVYYCAARTYRGLAYDYWGQGTQVTVSS	high polyreactivity
QVQLVESGGGLVQAGGSLRLSCAASGFIFIPYAKGWYRQAPGKERELVAAISVSDGTTYYADSVKGRFTISRDNAKNTVYFQMNSLKPEDTAVDYCAARRRAQQGTRDHDYWGQGTQVTVSS	high polyreactivity
QVQLVESGGGLVQAGGSLRLSCAASGFIFIRNAMGWYRQAPGKQRELVATIRYSGGNTYYADSVKGRFTISRDNAKNTVYLQMNSLNPEDTAVYYCAAGSGYWGRSPTRCGQGGYWGQGTQVTVSS	high polyreactivity
